This sample holds only a part of the variants without activity.
B1: TPR 5TU (parent)
chain: GGAUCUUCUCGAUCUAACAAAAAAGACAAAUCUGCCACAAAGCUUGAGAGCAUCUUCGGAUGCAGAGGCGGCAGCCUUCGGUGGCGCGAUAGCGCCAACGUUCUCAACUAUGACACGCAAAACGCGUGCUCCGUUGAAUGGAGUUUAUCAUG

Variants of: B1
Assay: polymerase ribozyme fitness, log enrichment relative to wild type (log ratio); higher = more active; in vitro selection for triplet polymerase activity
In short: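 Mutant libraries of both subunits of a heterodimeric triplet polymerase ribozyme were PCR-built, transcribed, and selected once in triplicate, with frozen incubation at −7 °C and capture of gel-excised extended constructs on streptavidin beads before RT-PCR. Illumina sequencing of input and output libraries was filtered to genotypes with ≥10 input reads and ≥1 read per output. Fitness is the logarithm of genotype enrichment over wild-type enrichment, using inverse-variance-weighted replicate averages. The logarithm is base 2.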

Variant	polymerase ribozyme fitness (log ratio)
G11U A24U G50A U56A A60G C87U G126A U146G	≤ -4.2
C10G C87U	-3.38
C10U G84A G126U	-4.02
G11A A41C G83C C123G	-2.58
G11C A19C G70U G86A A89U A106G G136C	≤ -4.2
G11A A16U A21U A60U C63A C85A G126U	≤ -4.2
C10U A12U A21C A39U G71A A106C C125G G141A	≤ -4.2
A12C A29G C93U U104A U134A	≤ -4.2
G11U C38G G46A	-2.87
C10A U45A C69U C72U	≤ -4.2
C10G C38U C95A	≤ -4.2
C10U A37U C57G G58U C87G G140U U145A	≤ -4.2
C10A G25A A29U A89C G92U C108U A113U G117C	≤ -4.2
G11U C14G U127G	≤ -4.2
A12U A17C A24G C79U C118U	≤ -4.2
A12G G58A U148C	-1.8
C10G A47G A49G G71A C87U A97U A106G A107C U111G U134C	≤ -4.2
A12C C36U C85U A147U	-1.81
C10U G59C C85A C116G A138C	≤ -4.2
A12C U56A G88U	-3.41
A12G C54G G80A U144A	-3.53

Variant	polymerase ribozyme fitness (log ratio)
A12G A21C C32U U55G	-1.77
C10U C125U	-3.3
G11A C105U	-1.12
G11U A30U C95U C99U	≤ -4.2
G11U U31C U53A A66G C85A C87A	≤ -4.2
A12G G143U	-2.62
A12G C75G A119C	-3.34
A12U A21C G80C G81A C93G G140U	≤ -4.2
G11C U33A U44C C76A A89U C95U A122C C123U G133A	≤ -4.2
G11A A12G A52G U56A G81U	-2.09
C10U U15G G58U A73G G83A A91C C95U U134C	≤ -4.2
A12C C35U A39G G59A C85A C87U	≤ -4.2
C10U A17G A23C A24C A26G U31G A39U U44A C54G C57G C79A C96U G124A	≤ -4.2
G11C A26G C93A A120U G126C	-3.54
C10U C14U C54U C72U U78A C79U G94C A97U	≤ -4.2
A12G U13C C14A A41C A110U A119G G133A G140U U145G	≤ -4.2
A12C U145C	0.192
C10G A20U A28U C35U C51G A64C G84U C123U	≤ -4.2
G11A A137C C149U	≤ -4.2
A12G A20U A41C C57A A66U C69G A91U C129U	≤ -4.2
C10G A19U C32A C93U U127A	≤ -4.2

Variant	polymerase ribozyme fitness (log ratio)
G11U A29U U55G G92U C93G C95A G133A U144A A150C	≤ -4.2
A12C A97G U102G	-3.89
C10G G42A C57U C85A C108U	≤ -4.2
A12G C72G G74U G83U U146G	≤ -4.2
C10G A22C C35U G86U A115G G124A	≤ -4.2
A12C A19C G58C G62A C63U A97G	≤ -4.2
C10G C96G	-3.62
C10G C96U	-2.78
A12G U33A A64C G92A G124U	-4
C10U U15C A39U G48C C76A C85G G88A U90G G140U	≤ -4.2
G11C G46U U55A C87U C93U U127G A138C U145A	≤ -4.2
G11U G83A C96U	-0.589
C10G G92A U111G A150C	≤ -4.2
C10G G84U	-3.9
C10U A17G A28C G42A C85U A89G C93U U145G	≤ -4.2
C10G C43G U55A G83A G92C C125A	≤ -4.2
C10U C38A G70A C93U A97U C116G U148G	≤ -4.2
A12C C51U C85A A150U	-0.931
G11A C96G	-1.49
C10U A17G A26U G46C U55A C85U A106U G126A G133C	≤ -4.2
G11C A30G U53A G58A C95A	≤ -4.2

Variant	polymerase ribozyme fitness (log ratio)
G11C A120U	-2.55
A12G A24G A37C C87G A120G U139G	-4.13
A12C A21C C35A G58U U135G	-4.1
G11U A16G C36A A49C C95G C118U G133U	≤ -4.2
C10G A47C C54A U55A G58A C63U U82C C87G G100U A113C U134G	≤ -4.2
C10A C85A	-3.53
C10G A17U A37C C93U	-4.18
A12G C14U C79G C132A A142U	≤ -4.2
C10A U31G G50A G58C C96A C116U	≤ -4.2
A12U A16G A40C U55A G81A C118G C129A	≤ -4.2
C10G A29U C95U C108A	≤ -4.2
G11U G88C	≤ -4.2
C10U C32U C35U A49C C51A C87A G141A	≤ -4.2
C10U U56A G67C G86C C96A G126U	≤ -4.2
C10G C79G	≤ -4.2
C10U A52G G67U C69A	≤ -4.2
A12C A52G C93U U101C C105U	-2.54
C10G C57A C108A A115G U134A G136U	≤ -4.2
A12C U61A G84U A97U U145C	≤ -4.2
G11U G58C G84U A97U	-2.86
